Measured values: paper doi:10.1101/2020.08.10.242008

Biological target: T1, Full-length wild-type rat TRPV2 (transient receptor potential vanilloid 2) (rat), Q9WUD2
T1 chain: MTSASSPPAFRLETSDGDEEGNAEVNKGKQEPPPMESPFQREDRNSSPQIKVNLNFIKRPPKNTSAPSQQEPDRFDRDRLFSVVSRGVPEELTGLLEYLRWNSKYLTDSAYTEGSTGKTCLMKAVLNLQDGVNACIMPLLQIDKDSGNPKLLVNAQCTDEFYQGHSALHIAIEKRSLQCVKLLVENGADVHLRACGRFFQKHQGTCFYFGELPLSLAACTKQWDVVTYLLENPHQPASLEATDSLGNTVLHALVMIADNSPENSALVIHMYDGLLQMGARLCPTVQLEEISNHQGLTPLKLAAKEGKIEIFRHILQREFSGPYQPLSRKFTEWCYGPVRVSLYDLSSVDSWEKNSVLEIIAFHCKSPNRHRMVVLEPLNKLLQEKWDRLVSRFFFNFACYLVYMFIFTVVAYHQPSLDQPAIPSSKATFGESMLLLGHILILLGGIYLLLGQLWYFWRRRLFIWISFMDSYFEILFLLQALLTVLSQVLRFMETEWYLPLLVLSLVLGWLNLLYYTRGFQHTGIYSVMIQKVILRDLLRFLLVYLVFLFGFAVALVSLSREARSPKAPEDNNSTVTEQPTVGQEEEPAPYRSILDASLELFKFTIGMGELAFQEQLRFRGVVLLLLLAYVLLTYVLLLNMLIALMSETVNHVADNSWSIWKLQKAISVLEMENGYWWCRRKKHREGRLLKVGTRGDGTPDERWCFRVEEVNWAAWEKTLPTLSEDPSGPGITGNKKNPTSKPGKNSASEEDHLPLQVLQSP
Test: cryo-EM structure
Details: remark: other sources report otherwise

stoichiometry N: 4
B1: Full-length wild-type rat TRPV2 (transient receptor potential vanilloid 2), Q9WUD2 1-761 (natural protein)
chain: T1 chain
